We go through three molecules from patent publication US20200317768A1 (published 2020).

Assay [1] has as its target T1, cynomolgus monkey FcγRIIIaS extracellular domain, His-tagged (cynomolgus monkey, UniProt Q8SPW2 21-206 at identity 1.00)).
T1 construct: also called cyno FcγRIIIaS; cynoFcγRIIIaS
T1 chain: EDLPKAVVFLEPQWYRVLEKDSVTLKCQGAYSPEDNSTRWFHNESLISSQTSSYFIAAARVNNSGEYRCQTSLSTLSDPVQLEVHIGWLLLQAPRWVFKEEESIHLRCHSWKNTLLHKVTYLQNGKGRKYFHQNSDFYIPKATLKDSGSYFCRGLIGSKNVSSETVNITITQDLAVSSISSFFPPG
Briefly: SPR; KD of SG1 / KD of variant.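 Also: relative to parent M103205H795-SG1 carrying the SG1 human heavy chain constant region.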

The target in assay [2] is T2, cynomolgus monkey FcγRIIb extracellular domain, His-tagged (cynomolgus monkey).
T2 construct: also called cyno FcγRIIb; cynoFcγRIIb
T2 chain: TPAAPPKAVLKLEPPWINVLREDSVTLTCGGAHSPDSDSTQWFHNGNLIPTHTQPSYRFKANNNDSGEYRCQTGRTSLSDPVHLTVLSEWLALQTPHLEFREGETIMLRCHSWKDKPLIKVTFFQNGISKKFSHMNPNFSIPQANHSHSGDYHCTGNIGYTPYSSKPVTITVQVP
Kind of assay: SPR; KD of SG1 / KD of variant.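 Also: relative to parent M103205H795-SG1 carrying the SG1 human heavy chain constant region.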 Background: SPR reads the build-up and loss of mass on a sensor chip optically.

In assay [3] the target is T3, cynomolgus monkey FcγRIIa1 extracellular domain, His-tagged (cynomolgus monkey).
T3 construct: also called cyno FcγRIIa1; cynoFcgRIIa1
T3 chain: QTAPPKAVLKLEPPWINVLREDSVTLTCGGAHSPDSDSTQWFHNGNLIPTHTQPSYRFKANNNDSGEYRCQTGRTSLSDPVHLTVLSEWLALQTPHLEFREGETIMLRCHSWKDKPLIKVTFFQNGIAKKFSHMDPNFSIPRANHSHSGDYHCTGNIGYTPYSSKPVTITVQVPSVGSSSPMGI
Briefly: SPR; KD of SG1 / KD of variant.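 Also: relative to parent M103205H795-SG1 carrying the SG1 human heavy chain constant region.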

Assay [4] has as its target T4, human FcγRIIIaV extracellular domain, His-tagged (human, UniProt P08637 17-208).
T4 construct: also called FcgRIIIaV
Briefly: SPR; KD of SG1 / KD of variant.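 Also: relative to parent M103205H795-SG1 carrying the SG1 human heavy chain constant region.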

In assay [5] the target is T5, cynomolgus monkey FcγRIIa3 extracellular domain, His-tagged (cynomolgus monkey).
T5 construct: also called cyno FcγRIIa3; cynoFcgRIIa3
T5 chain: T3 chain with P95T, T121A, A128S, H133P, D135N
Kind of assay: SPR; KD of SG1 / KD of variant.

Assay [6] addresses T6, human FcγRIIaH extracellular domain, His-tagged (human, UniProt P12318 34-217).
T6 construct: also called human FcγRIIa (type H); FcgRIIaH
T6 sequence: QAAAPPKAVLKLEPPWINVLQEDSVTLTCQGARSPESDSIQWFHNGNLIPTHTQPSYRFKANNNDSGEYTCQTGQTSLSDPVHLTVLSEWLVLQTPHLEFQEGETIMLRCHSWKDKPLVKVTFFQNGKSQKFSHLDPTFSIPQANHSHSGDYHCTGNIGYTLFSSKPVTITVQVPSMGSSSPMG
Briefly: SPR; KD of SG1 / KD of variant.

In assay [7] the target is T7, human FcγRIIb extracellular domain, His-tagged (human, UniProt P31994 43-217).
T7 construct: also called FcgRIIb (human)
T7 sequence: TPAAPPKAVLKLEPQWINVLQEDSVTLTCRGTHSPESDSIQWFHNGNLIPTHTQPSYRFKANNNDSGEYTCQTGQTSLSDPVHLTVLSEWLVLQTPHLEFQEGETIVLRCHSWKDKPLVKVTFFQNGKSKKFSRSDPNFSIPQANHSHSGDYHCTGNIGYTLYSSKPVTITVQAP
Kind of assay: SPR; KD of SG1 / KD of variant.

In assay [8] the target is T8, cynomolgus monkey FcγRIIa2 extracellular domain, His-tagged (cynomolgus monkey).
T8 construct: also called cyno FcγRIIa2; cynoFcgRIIa2
T8 chain: T3 chain with P95T, T121A, I127K, A128S, K130N, D135N, R142Q
Kind of assay: SPR; KD of SG1 / KD of variant.

In assay [9] the target is T1, cynomolgus monkey FcγRIIIaS …. Briefly: SPR, antibody captured, FcgR analyte. On the procedure:
(§1) The kinetic analysis of interactions between these antibodies and FcγR was carried out using BIACORE® T200 or BIACORE® 4000 (GE Healthcare). HBS-EP+ (GE Healthcare) was used as the running buffer, and the measurement temperature was set to 25° C. A chip produced by immobilizing Protein A. Protein A/G or mouse anti-human IgG kappa light chain (BD Biosciences) onto a Series S Sensor Chip CM4 or CM5 (GE Healthcare) by the amine-coupling method was used. […] After the measurement, the antibody captured on the chip was washed off by allowing reaction with 10 mM glycine-HCl, pH1.5 and 25 mM NaOH so that the chip was regenerated and used repeatedly. The sensorgrams obtained as measurement results were analyzed by the 1:1 Langmuir binding model using the BIACORE® Evaluation Software to calculate the binding rate constant ka (L/mol/s) and dissociation rate constant kd (l/s), and the dissociation constant KD (mol/L) was calculated from these values. […] Regarding such interactions, KD values were calculated using the following 1:1 binding model described in BIACORE® T100 Software Handbook BR1006-48 Edition AE.
(§2) The behavior of interacting molecules according to the 1:1 binding model on BIACORE® can be described by Equation 1: Req=C·R max/(KD+C)+RI, wherein, Req is a plot of steady-state binding levels to analyte concentration. C is concentration, RI is bulk refractive index contribution in the sample, and Rmax is analyte binding capacity of the surface. When this equation is rearranged, KD can be expressed as Equation 2: KD=C·Rmax/(Req−RI)−C. KD can be calculated by substituting the values of Rmax, RI, and C into Equation 1 or Equation 2. From the current measurement conditions, RI=0, C=2 μmol/L can be used.

Assay [10] has as its target T2, cynomolgus monkey FcγRIIb extracellular …. Kind of assay: SPR, antibody captured, FcgR analyte. On the procedure: as §1, §2
The target in assay [11] is T3, cynomolgus monkey FcγRIIa1 …. Kind of assay: SPR, antibody captured, FcgR analyte. On the procedure: as §1, §2
The target of assay [12] is T4, human FcγRIIIaV extracellular domain, …. Briefly: SPR, antibody captured, FcgR analyte. On the procedure:
as §1, §2

For assay [13], the target named is T9, human FcγRIIaR extracellular domain, His-tagged (human, UniProt P12318 34-217).
T9 construct: also called human FcγRIIa (type R); FcgRIIaR
T9 chain: T6 sequence with H134R
Kind of assay: SPR, antibody captured, FcgR analyte. On the procedure: as §1, §2

The target in assay [14] is T5, cynomolgus monkey FcγRIIa3 …. Briefly: SPR, antibody captured, FcgR analyte. On the procedure:
as §1, §2

Assay [15] deals with T6, human FcγRIIaH extracellular domain, …. Briefly: SPR, antibody captured, FcgR analyte. On the procedure: as §1, §2
The target of assay [16] is T7, human FcγRIIb extracellular domain, …. Briefly: SPR, antibody captured, FcgR analyte. On the procedure:
as §1, §2

Assay [17] addresses T8, cynomolgus monkey FcγRIIa2 …. Kind of assay: SPR, antibody captured, FcgR analyte. On the procedure:
as §1, §2

Residue numbers refer to the chain shown, from its start.

T4 sequence (P08637 17-208 F176V): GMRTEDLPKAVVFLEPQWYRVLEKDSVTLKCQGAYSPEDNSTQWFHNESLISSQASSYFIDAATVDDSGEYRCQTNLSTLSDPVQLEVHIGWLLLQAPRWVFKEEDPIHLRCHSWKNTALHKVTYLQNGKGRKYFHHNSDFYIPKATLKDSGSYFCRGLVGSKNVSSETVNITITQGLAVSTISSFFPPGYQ

B1: M103205H795-MY012/M103202L889-SK1 (antibody, human IgG1, kappa)
heavy: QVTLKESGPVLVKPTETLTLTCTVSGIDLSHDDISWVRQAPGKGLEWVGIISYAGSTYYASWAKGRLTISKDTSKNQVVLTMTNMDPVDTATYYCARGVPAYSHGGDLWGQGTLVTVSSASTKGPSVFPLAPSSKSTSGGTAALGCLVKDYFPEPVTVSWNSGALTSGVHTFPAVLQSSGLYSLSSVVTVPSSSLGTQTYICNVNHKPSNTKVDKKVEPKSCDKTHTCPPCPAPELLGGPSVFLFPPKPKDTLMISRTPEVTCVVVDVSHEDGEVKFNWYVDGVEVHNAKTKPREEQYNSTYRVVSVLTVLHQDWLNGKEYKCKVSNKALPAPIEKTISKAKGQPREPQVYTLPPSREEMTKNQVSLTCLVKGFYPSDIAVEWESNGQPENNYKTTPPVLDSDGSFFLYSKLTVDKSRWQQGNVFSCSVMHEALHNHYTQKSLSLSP
light: DIVMTQSPATLSLSPGERATLSCTSSQSVYHANWLSWFQQKPGQPPKLLIYWASTLAYGVPSRFSGSGSGTDFTLTISSLQPEDAATYYCAGGYGGGRYAFGQGTKVEIKRTVAAPSVFIFPPSDEQLKSGTASVVCLLNNFYPREAKVQWKVDNALQSGNSQESVTEQDSKDSTYSLSSTLTLSKADYEKHKVYACEVTHQGLSSPVTKSFNRGEC
notes: Put into M103205H795-SG1
As for B1, the “KD fold (SG1 = 1)” value amounted to 1.8 fold in assay [1]; 1.6 fold in assay [2]; 1.5 fold in assay [3]; 1.69 fold in assay [4]; 2.2 fold in [5]; 1.6 fold in assay [6]. The “KD fold (SG1 = 1)” value in [7] is 5.3 fold; in assay [8], 2.2 fold. In addition, the Kd – broadly, a measure of binding affinity in units of concentration – in assay [9] turned out to be 200 nM; in assay [10], 1100 nM; in assay [11], 2100 nM; in assay [12], 480 nM; in [13], 230 nM; in [14], 7900 nM. Moreover, the Kd is 440 nM in assay [15], 900 nM in [16] and 2300 nM in [17].

B2: M103205H795-MY017/M103202L889-SK1 (antibody, human IgG1, kappa)
heavy: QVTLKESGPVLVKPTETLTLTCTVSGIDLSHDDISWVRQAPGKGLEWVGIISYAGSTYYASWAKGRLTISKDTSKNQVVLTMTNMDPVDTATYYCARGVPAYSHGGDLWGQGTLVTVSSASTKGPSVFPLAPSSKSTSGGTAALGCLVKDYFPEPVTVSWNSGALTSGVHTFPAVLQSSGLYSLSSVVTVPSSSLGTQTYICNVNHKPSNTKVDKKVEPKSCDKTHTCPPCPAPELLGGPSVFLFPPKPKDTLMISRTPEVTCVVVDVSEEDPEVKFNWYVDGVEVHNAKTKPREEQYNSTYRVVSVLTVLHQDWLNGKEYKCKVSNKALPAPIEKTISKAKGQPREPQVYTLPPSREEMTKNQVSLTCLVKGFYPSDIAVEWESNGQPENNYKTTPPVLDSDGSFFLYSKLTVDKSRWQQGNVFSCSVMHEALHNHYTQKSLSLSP
light: B1 light
notes: Substitution put into M103205H795-SG1
As to B2, the “KD fold (SG1 = 1)” value in [1] came out at 3.67 fold; in assay [2] it was 2.6 fold; in assay [3] it was 1.2 fold; in [4], 5.79 fold; in assay [5] it was 3.2 fold; in assay [6] it was 1.5 fold. In addition, the “KD fold (SG1 = 1)” value was determined as 4.9 fold in assay [7] and 1.8 fold in [8]. For the same molecule, the Kd in assay [9] was 98 nM; in [10] it was 580 nM; in assay [11] it was 2700 nM; in assay [12] it was 140 nM; in assay [13], 280 nM; in assay [14], 5500 nM. The results for the Kd in [15], in [16] and in assay [17] were 450 nM, 940 nM and 2900 nM, respectively.

B3: M103205H795-MY061/M103202L889-SK1 (antibody, human IgG1, kappa)
heavy: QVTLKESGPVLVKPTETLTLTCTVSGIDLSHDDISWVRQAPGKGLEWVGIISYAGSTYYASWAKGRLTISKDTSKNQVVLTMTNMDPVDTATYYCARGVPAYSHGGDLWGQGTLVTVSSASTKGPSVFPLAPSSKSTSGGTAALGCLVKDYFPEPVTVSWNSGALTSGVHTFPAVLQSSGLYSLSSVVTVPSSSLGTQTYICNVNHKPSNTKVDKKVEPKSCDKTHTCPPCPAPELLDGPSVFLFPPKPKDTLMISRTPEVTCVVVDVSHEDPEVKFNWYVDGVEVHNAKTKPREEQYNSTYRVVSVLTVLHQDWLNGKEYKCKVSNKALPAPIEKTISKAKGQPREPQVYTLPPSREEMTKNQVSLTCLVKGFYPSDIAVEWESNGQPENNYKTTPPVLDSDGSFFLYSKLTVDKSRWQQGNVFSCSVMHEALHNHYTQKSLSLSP
light: B1 light
notes: as for B2
Take B3: the “KD fold (SG1 = 1)” value in [1] turned out to be 0.11 fold; in assay [2], 0.6 fold; in assay [3], 0.5 fold; in assay [4] it was 0.27 fold; in [5], 0.5 fold; in assay [6], 0.5 fold. Also, the “KD fold (SG1 = 1)” value stood at 1.8 fold in assay [7] and 0.8 fold in assay [8]. Besides, the Kd in [9] was 3400 nM; in [10] it was 4200 nM; in assay [11], 6500 nM; in assay [12] it was 3000 nM; in assay [13], 1300 nM; in assay [14], 18000 nM. Also, the values for the Kd in assay [15] and in assay [16] were 1400 nM and 2500 nM, respectively.
